We go through three molecules from US20120121608A1 (CALIFORNIA INSTITUTE OF TECHNOLOGY, published 2012).

T1: RIP, endogenous, in mouse embryonic fibroblasts (mouse, UniProt Q60855 1-656)
T1 sequence (looked up): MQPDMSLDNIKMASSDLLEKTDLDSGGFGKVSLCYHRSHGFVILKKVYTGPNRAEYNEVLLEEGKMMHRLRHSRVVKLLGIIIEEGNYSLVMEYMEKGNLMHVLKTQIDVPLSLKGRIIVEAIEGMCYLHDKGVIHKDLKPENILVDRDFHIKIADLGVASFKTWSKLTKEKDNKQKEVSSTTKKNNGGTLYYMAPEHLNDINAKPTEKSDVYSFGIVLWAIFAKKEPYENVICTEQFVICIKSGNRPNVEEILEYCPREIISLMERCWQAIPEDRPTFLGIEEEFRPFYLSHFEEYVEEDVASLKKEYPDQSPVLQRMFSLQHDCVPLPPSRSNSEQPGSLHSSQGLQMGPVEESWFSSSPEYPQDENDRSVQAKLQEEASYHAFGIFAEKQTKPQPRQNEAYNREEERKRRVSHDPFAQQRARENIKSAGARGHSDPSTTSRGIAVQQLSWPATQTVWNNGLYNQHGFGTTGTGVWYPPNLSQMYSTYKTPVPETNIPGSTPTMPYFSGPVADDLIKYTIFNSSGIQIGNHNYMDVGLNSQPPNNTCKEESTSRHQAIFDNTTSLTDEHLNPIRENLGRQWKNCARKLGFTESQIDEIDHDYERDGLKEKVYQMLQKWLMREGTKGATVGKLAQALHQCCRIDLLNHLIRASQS

B1: TNF receptor, endogenous, in mouse embryonic fibroblasts (MEF) (receptor, UniProt P25118 30-454, looked up)
chain: LVPSLGDREKRDSLCPQGKYVHSKNNSICCTKCHKGTYLVSDCPSPGRDTVCRECEKGTFTASQNYLRQCLSCKTCRKEMSQVEISPCQADKDTVCGCKENQFQRYLSETHFQCVDCSPCFNGTVTIPCKETQNTVCNCHAGFFLRESECVPCSHCKKNEECMKLCLPPPLANVTNPQDSGTAVLLPLVILLGLCLLSFIFISLMCRYPRWRPEVYSIICRDPVPVKEEKAGKPLTPAPSPAFSPTSGFNPTLGFSTPGFSSPVSSTPISPIFGPSNWHFMPPVSEVVPTQGADPLLYESLCSVPAPTSVQKWEDSAHPQRPDNADLAILYAVVDGVPPARWKEFMRFMGLSEHEIERLEMQNGRCLREAQYSMLEAWRRRTPRHEDTLEVVGLVLSKMNLAGCLENILEALRNPAPSSTTRLPR
notes: also called TNF receptor complex
B2: Sam68, endogenous, in mouse embryonic fibroblasts (MEF) (other, UniProt Q60749 1-443, looked up)
chain: MQRRDDPASRLTRSSGRSCSKDPSGAHPSVRLTPSRPSPLPHRPRGGGGGPRGGARASPATQPPPLLPPSTPGPDATVVGSAPTPLLPPSATAAVKMEPENKYLPELMAEKDSLDPSFTHAMQLLSVEIEKIQKGESKKDDEENYLDLFSHKNMKLKERVLIPVKQYPKFNFVGKILGPQGNTIKRLQEETGAKISVLGKGSMRDKAKEEELRKGGDPKYAHLNMDLHVFIEVFGPPCEAYALMAHAMEEVKKFLVPDMMDDICQEQFLELSYLNGVPEPSRGRGVSVRGRGAAPPPPPVPRGRGVGPPRGALVRGTPVRGSITRGATVTRGVPPPPTVRGAPTPRARTAGIQRIPLPPTPAPETYEDYGYDDTYAEQSYEGYEGYYSQSQGESEYYDYGHGELQDSYEAYGQDDWNGTRPSLKAPPARPVKGAYREHPYGRY
notes: also called KHDRBS1
B3: TNF receptor, endogenous, in HeLa cells (receptor, human, UniProt P19438 30-455, looked up)
chain: LVPHLGDREKRDSVCPQGKYIHPQNNSICCTKCHKGTYLYNDCPGPGQDTDCRECESGSFTASENHLRHCLSCSKCRKEMGQVEISSCTVDRDTVCGCRKNQYRHYWSENLFQCFNCSLCLNGTVHLSCQEKQNTVCTCHAGFFLRENECVSCSNCKKSLECTKLCLPQIENVKGTEDSGTTVLLPLVIFFGLCLLSLLFIGLMYRYQRWKSKLYSIVCGKSTPEKEGELEGTTTKPLAPNPSFSPTPGFTPTLGFSPVPSSTFTSSSTYTPGDCPNFAAPRREVAPPYQGADPILATALASDPIPNPLQKWEDSAHKPQSLDTDDPATLYAVVENVPPLRWKEFVRRLGLSDHEIDRLELQNGRCLREAQYSMLATWRRRTPRREATLELLGRVLRDMDLLGCLEDIEEALCGPAALPPAPSLLR

In experiment [1] the target is B2. In words: immunoprecipitation of endogenous Sam68 from MEF cells, immunoblot for TNFR (FIG. 10). How it is done:
(§1) 20-25×10⁶ control and treated cells were lysed in a rotator at 4° C. for 30 minutes in the lysis buffer (1.0% Triton-X100, 20 mM HEPES (pH 7.6), 150 mM NaCl, 1 mM EDTA, 10% glycerol and complete protease inhibitor cocktail). The immunoprecipitates were washed thrice with the lysis buffer and boiled with LDS sample buffer (Invitrogen). Samples with the endogenous protein complexes were resolved in Novex 4-12% Bis-Tris gels (Invitrogen) and transferred to nitrocellulose membrane, probed using relevant antibodies and detected using the SuperSignal West Pico or West Femto Chemiluminescent Substrate System (Pierce). Detection of proteins in the immunoprecipitates with molecular weight close to the denatured heavy and light chains of immunoglobulins (50 kDa and 25 kDa respectively) was performed using native IgG detection reagent (Pierce). […] Additionally, membrane fractionation was performed on cells treated with TNF.
(In general: A western blot detects proteins with antibodies after separation by electrophoresis.)

Experiment [2] concerns the target T1, RIP, endogenous, in mouse embryonic …. In words: immunoprecipitation of Sam68 from TNF-treated MEF cells, probed for RIP (FIG. 15E).
In experiment [3] the target is T2, Sam68, endogenous, in human cells (HeLa, 293T) (human, UniProt Q07666 1-443).
T2 construct: also called endogenous Sam68
Description: immunoprecipitation of TNFR with anti-TNFR antibody from HeLa cells, immunoblot (FIG. 9E). How it is done: as §1

As to B1, the binding result in experiment [1] is given as “binds”. Take B2: the binding result in experiment [2] was “binds”. B3: the binding result in experiment [3] was “binds”.
